Where two headings read alike, the source gives them in different places.

What all share (test): EMSA
For orientation: In EMSA bound probe runs differently from free probe, usually more slowly.

Series [1] concerns the target T1, Dna2 (hDna2) (human, UniProt P51530 1-1060).
T1 sequence: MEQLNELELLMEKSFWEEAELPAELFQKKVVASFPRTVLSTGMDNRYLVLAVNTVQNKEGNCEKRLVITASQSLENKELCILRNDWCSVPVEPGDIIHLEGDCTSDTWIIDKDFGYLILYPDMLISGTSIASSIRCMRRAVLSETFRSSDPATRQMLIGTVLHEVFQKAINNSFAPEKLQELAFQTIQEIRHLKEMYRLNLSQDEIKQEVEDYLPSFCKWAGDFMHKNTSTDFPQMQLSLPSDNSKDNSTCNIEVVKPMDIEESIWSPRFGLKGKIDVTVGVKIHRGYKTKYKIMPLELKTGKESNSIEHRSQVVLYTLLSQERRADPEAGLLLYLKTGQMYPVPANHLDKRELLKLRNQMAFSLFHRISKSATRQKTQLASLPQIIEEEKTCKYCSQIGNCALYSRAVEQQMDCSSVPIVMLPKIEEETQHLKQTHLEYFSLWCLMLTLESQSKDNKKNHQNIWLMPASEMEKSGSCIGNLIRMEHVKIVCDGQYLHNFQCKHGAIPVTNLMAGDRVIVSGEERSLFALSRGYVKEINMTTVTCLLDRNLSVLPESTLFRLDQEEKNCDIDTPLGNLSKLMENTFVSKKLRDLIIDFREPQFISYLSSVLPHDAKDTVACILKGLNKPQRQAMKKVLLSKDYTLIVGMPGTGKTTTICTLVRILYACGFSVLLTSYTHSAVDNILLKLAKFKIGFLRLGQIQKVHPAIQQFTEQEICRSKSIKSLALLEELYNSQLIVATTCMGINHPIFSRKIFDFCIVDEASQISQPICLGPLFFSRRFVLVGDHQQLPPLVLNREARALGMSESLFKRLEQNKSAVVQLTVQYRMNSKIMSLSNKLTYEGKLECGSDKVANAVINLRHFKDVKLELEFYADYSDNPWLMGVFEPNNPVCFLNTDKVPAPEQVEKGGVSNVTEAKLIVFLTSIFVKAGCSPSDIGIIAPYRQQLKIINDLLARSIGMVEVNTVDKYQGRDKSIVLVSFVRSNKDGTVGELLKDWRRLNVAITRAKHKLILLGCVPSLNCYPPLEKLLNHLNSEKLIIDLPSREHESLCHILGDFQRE

For series [2], the target named is T2, FEN1 (hFEN1) (human, UniProt P39748 1-380).
The target in series [3] is Dna2 (hDna2);FEN1 (hFEN1) (human;human, UniProt P51530;P39748 1-1060;1-380, |).
The target of series [4] is T2, FEN1 (hFEN1). The source holds these as a separate data set.
The target of series [5] is T1, Dna2 (hDna2). This is another data set of the same source.
For series [6], the target named is T1, Dna2 (hDna2). This is another data set of the same source.
Series [7] deals with T1, Dna2 (hDna2). This is another data set of the same source.
Series [8] deals with T1, Dna2 (hDna2). The source holds these as a separate data set.
Series [9] deals with T2, FEN1 (hFEN1). The source holds these as a separate data set.
Series [10] addresses T1, Dna2 (hDna2). The source holds these as a separate data set.

T2 sequence (P39748 whole entry): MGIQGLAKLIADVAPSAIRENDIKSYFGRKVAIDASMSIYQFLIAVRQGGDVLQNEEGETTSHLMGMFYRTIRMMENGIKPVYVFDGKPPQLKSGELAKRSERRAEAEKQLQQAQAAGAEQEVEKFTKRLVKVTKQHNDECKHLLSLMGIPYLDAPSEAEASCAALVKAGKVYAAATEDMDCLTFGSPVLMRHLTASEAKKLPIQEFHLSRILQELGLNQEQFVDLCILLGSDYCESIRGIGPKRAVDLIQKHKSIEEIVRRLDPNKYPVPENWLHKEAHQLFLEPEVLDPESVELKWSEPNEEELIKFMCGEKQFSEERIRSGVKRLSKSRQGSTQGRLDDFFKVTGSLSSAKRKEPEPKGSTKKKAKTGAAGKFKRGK
Dna2 (hDna2);FEN1 (hFEN1), sequence (P39748 whole entry, one chain of several): as the sequence (P39748 whole entry) above

B1: 30 nt double flap (U2:T3:D2.30) (mixed)
DNA 1: TTCTACTTCCAATTGATACGCGCTATAACCCCCGTCCACCCGACGCCACCTCCTGC
DNA 2: GCAGGAGGTGGCGTCGGGTGGACGGGATTGAAATTTAGGCTGGCACGGTCG
DNA 3: CGACCGTGCCAGCCTAAATTTCAATT
On to B1, for which the binding result in series [1], in series [2] and in [3] was “binds” in each case.

B2: 30 nt 5'-tail (T4:D2.30) (mixed)
DNA 1: B1 DNA 1
DNA 2: GCAGGAGGTGGCGTCGGGTGGACGGG
As to B2, the binding result in series [4] is reported as “no binding”; in series [5], “binds”.

B3: 30 nt flap, 2 nt gap (U4:T3:D2.30) (mixed)
DNA 1: B1 DNA 1
DNA 2: B1 DNA 2
DNA 3: CGACCGTGCCAGCCTAAATTTCA
In the case of B3, the binding result in series [6] is “binds”.

B4: 30 nt flap, 5 nt gap (U3:T3:D2.30) (mixed)
DNA 1: B1 DNA 1
DNA 2: B1 DNA 2
DNA 3: CGACCGTGCCAGCCTAAATT
For B4, the binding result in series [7] is recorded as “binds”.

B5: 2 nt double flap (U1:T1:D1.2) (mixed)
DNA 1: GTCGTTTTACAACGACGTGACTGGG
DNA 2: GCCCAGTCACGTCGTTGTAAAACGGGTCGTGACTGGGAAAACCCTGGCG
DNA 3: CGCCAGGGTTTTCCCAGTCACGACCA
As to B5, the binding result in [8] was “no binding”.

B6: 5 nt double flap (U1:T1:D1.5) (mixed)
DNA 1: GCCGTCGTTTTACAACGACGTGACTGGG
DNA 2: B5 DNA 2
DNA 3: CGCCAGGGTTTTCCCAGTCACGACCA
For the molecule B6, the figures for the binding result in series [9] and in series [8] were “binds” and “no binding”, respectively.

B7: 30 nt double flap (U1:T1:D1.30) (mixed)
DNA 1: TTCACGCCTGTTAGTTAATTCACTGGCCGTCGTTTTACAACGACGTGACTGGG
DNA 2: B5 DNA 2
DNA 3: CGCCAGGGTTTTCCCAGTCACGACCA
As for B7, the binding result in series [9] and in series [10] was “binds” each time.

B8: 20 nt double flap (U1:T1:D1.20) (mixed)
DNA 1: TTAGTTAATTCACTGGCCGTCGTTTTACAACGACGTGACTGGG
DNA 2: B5 DNA 2
DNA 3: CGCCAGGGTTTTCCCAGTCACGACCA
For the molecule B8, the binding result in series [9] is listed as “binds”.

B9: 10 nt double flap (U1:T1:D1.10) (mixed)
DNA 1: CACTGGCCGTCGTTTTACAACGACGTGACTGGG
DNA 2: B5 DNA 2
DNA 3: CGCCAGGGTTTTCCCAGTCACGACCA
As to B9, the binding result in series [9] was “binds”.

B10: 15 nt double flap (U1:T1:D1.15) (mixed)
DNA 1: TAATTCACTGGCCGTCGTTTTACAACGACGTGACTGGG
DNA 2: B5 DNA 2
DNA 3: CGCCAGGGTTTTCCCAGTCACGACCA
As to B10, the binding result in [9] is listed as “binds”.

B11: 15 nt 5'-tail (T4:D2.15) (mixed)
DNA 1: ATACGCGCTATAACCCCCGTCCACCCGACGCCACCTCCTGC
DNA 2: GCAGGAGGTGGCGTCGGGTGGACGGG
On to B11, for which the binding result in [4] was “no binding”.

Source of the values: publication PMC3413157.
